Data: paper PMC6958382, “27th Annual GP2A Medicinal Chemistry Conference” (Pharmaceuticals, 2019)

Target: T1, β2-adrenergic receptor (β2-AR) (Homo sapiens (assumed), UniProt P07550)
T1 construct: β2-adrenoceptor (β2-AR), crystallised in the active state with a catecholamine-type agonist (super-epi or super-iso) and Nb6B9; Conference abstract (poster P20) with no methods; also called ß2-AR
Test: crystal structure; co-crystal structures of β2-AR with super-epi or super-iso, bound to Nb6B9; active state of the receptor (Figure 17 legend)
Conditions: both partners purified

B1: Nb6B9 (VHH)
VHH: QVQLQESGGGLVQAGGSLRLSCAASGSIFALNIMGWYRQAPGKQRELVAAIHSGGTTNYANSVKGRFTISRDNAANTVYLQMNSLKPEDTAVYYCNVKDFGAIIYDYDYWGQGTQVTVSS
B1: binds.
